Assay results from patent US20230212587A1, “Mutant Hydroxyphenylpyruvate Dioxygenase Polypeptide, Encoding Gene Thereof and Use Therefor” (Beijing Dabeinong Biotechnology Co., Ltd., priority 2019, published 2023).

Tested on: Arabidopsis thaliana T1 plants
Experiment: Topramezone tolerance of transgenic Arabidopsis thaliana T1 plants (pesticide damage grade by bleached leaf area, score, resistance evaluation)
Assay type: in vivo
Parameters: score: scale not given here
Settings: for Classification and statistics of pesticide damage grade Grade 0 / Classification and statistics of pesticide damage grade Grade 1 / Classification and statistics of pesticide damage grade Grade 2 / Classification and statistics of pesticide damage grade Grade 3 / Classification and statistics of the grade of pesticide damage Grade 0 / Classification and statistics of the grade of pesticide damage Grade 1 / Classification and statistics of the grade of pesticide damage Grade 2 / Classification and statistics of the grade of pesticide damage Grade 3: number of plants (of 16) in this grade; for Classification and statistics of pesticide damage grade Grade 0 / Classification and statistics of pesticide damage grade Grade 1 / Classification and statistics of pesticide damage grade Grade 2 / Classification and statistics of pesticide damage grade Grade 3 / Scores / Resistance evaluation / Classification and statistics of the grade of pesticide damage Grade 0 / Classification and statistics of the grade of pesticide damage Grade 1 / Classification and statistics of the grade of pesticide damage Grade 2 / Classification and statistics of the grade of pesticide damage Grade 3: 7 DAT
Source text: The Arabidopsisthaliana T1 plants into which the AsHPPDm-F372A-02 nucleotide sequence was introduced, Arabidopsis thaliana T1 plants into which the AsHPPD-02 nucleotide sequence was introduced and wild-type Arabidopsisthaliana plants (18 days after sowing) were sprayed with topramezone at four different concentrations, i.e., 25 g ai/ha (one-fold field concentration, 1×), 50 g ai/ha (two-fold field concentration, 2×), 100 g ai/ha (four-fold field concentration, 4×) and 0 g ai/ha (water, 0×) to determine the tolerance of Arabidopsisthaliana to the herbicide. The degree of damage caused by the herbicide was measured for each plant according to the proportion of bleached leaf area (the proportion of bleached leaf area=bleached leaf area/total leaf area×100%) 7 days after spraying (7 DAT): the case where there is basically no bleached phenotype is defined as grade 0, the case where the proportion of bleached leaf area is less than 50% is defined as grade 1,the case where the proportion of bleached leaf area is more than 50% is defined as grade 2, and the case where the proportion of bleached leaf area is 100% grade is defined as grade 3.
(§1) According to the method as described above in point 6 of Example 1, the aforementioned Arabidopsisthaliana T1 plants and wild-type Arabidopsisthaliana plants (18 days after sowing) were sprayed with topramezone at three different concentrations respectively, i.e., 25 g ai/ha (one-fold field concentration, 1×), 100 g ai/ha (four-fold field concentration, 4×) and 0 g ai/ha(water, 0×) to detect the tolerance of Arabidopsisthaliana to the herbicide.
as §1, with “1x),” for “1×),”, “4x)” for “4×)”, “ai/ha (water, 0x)” for “ai/ha(water, 0×)”
According to the method as described above in point 6 of Example 1, the above-mentioned Arabidopsisthaliana T1 plants, Arabidopsisthaliana T1 plants into which the AsHPPD-02 nucleotide sequence was introduced, Arabidopsisthaliana T1 plants into which the PfHPPD-02 nucleotide sequence was introduced, and wild-type Arabidopsisthaliana plants (18 days after sowing) were sprayed with topramezone at four different concentrations respectively, that is, 25 g ai/ha (one-fold field concentration, 1x), 50 g ai/ha (two-fold field concentration, 2x), 100 g ai/ha (four-fold field concentration, 4x) and 0 g ai/ha (water, Ox) to detect the herbicide tolerance of Arabidopsisthaliana.
According to the method as described in point 6 of Example 1, the above-mentioned Arabidopsisthaliana T1 plants and wild-type Arabidopsisthaliana plants (18 days after sowing) were sprayed with topramezone at two different concentrations respectively, that is, 25 g ai/ha (one-fold field concentration, 1x) and 100 g ai/ha (four-fold field concentration, 4x) to detect the herbicide tolerance of Arabidopsisthaliana,. […]

[1] = HPPDs from different species, topramezone 25 g ai/ha (1x)
[2] = HPPDs from different species, topramezone 100 g ai/ha (4x)
[3] = topramezone 25 g ai/ha, mutation combination, Table 8
[4] = topramezone 100 g ai/ha, mutation combination, Table 8
[5] = non-372 position mutants, number of plants (of 20) in this grade, topramezone 25 g ai/ha (1x)
[6] = non-372 position mutants, number of plants (of 20) in this grade, topramezone 100 g ai/ha (4x)
[7] = topramezone 25 g ai/ha (1x), HPPD from Avena sativa source
[8] = topramezone 25 g ai/ha (1x), number of plants, HPPD from Avena sativa source
[9] = topramezone 50 g ai/ha (2x), HPPD from Avena sativa source
[10] = topramezone 50 g ai/ha (2x), number of plants, HPPD from Avena sativa source
[11] = topramezone 100 g ai/ha (4x), HPPD from Avena sativa source
[12] = topramezone 100 g ai/ha (4x), number of plants, HPPD from Avena sativa source

B1: PfHPPD-02: native Pseudomonas fluorescens HPPD, SEQ ID NO: 27 (protein, listed as Pseudomonas fluorescens)
chain: MADLYENPMGLMGFEFIEFASPTPGTLEPIFEIMGFTKVATHRSKNVHLYRQGEINLILNNEPNSIASYFAAEHGPSVCGMAFRVKDSQKAYNRALELGAQPIHIDTGPMELNLPAIKGIGGAPLYLIDRFGEGSSIYDIDFVYLEGVERNPVGAGLKVIDHLTHNVYRGRMVYWANFYEKLFNFREARYFDIKGEYTGLTSKAMSAPDGMIRIPLNEESSKGAGQIEEFLMQFNGEGIQHVAFLTDDLVKTWDALKKIGMRFMTAPPDTYYEMLEGRLPDHGEPVDQLQARGILLDGSSVEGDKRLLLQIFSETLMGPVFFEFIQRKGDDGFGEGNFKALFESIERDQVRRGVLTAD
modifications: PfHPPD Amino Acid Sequence
- Classification and statistics of pesticide damage grade Grade 0 [1]: 0
- Classification and statistics of pesticide damage grade Grade 1 [1]: 0
- Classification and statistics of pesticide damage grade Grade 2 [1]: 0
- Classification and statistics of pesticide damage grade Grade 3 [1]: 16
- Classification and statistics of pesticide damage grade Grade 0 [2]: 0
- Classification and statistics of pesticide damage grade Grade 1 [2]: 0
- Classification and statistics of pesticide damage grade Grade 2 [2]: 0
- Classification and statistics of pesticide damage grade Grade 3 [2]: 16
- Scores (HPPDs from different species, score for pesticide damage 0-100, topramezone 25 g ai/ha (1x)): 100
- Scores (HPPDs from different species, score for pesticide damage 0-100, topramezone 100 g ai/ha (4x)): 100
- Resistance evaluation [1]: non-resistant (non-resistant plants (scores 68-100))
- Resistance evaluation [2]: non-resistant (non-resistant plants (scores 68-100))
- tolerance to topramezone, in words (saturation mutation of HPPD from Pseudomonas fluorescens source (label F372X = PfHPPDm-F372X), topramezone 25, 50, 100 g ai/ha): no tolerance
- Grade 0 (number of plants) [3]: 0
- Grade 1 (number of plants) [3]: 0
- Grade 2 (number of plants) [3]: 0
- Grade 3 (number of plants) [3]: 20
- Resistance Grade [3]: Non-resistant
- score [3]: 100
- Grade 0 (number of plants) [4]: 0
- Grade 1 (number of plants) [4]: 0
- Grade 2 (number of plants) [4]: 0
- Grade 3 (number of plants) [4]: 20
- Resistance Grade [4]: Non-resistant
- score [4]: 100

B2: AsHPPD-02: Avena sativa native HPPD, SEQ ID NO: 1; gene SEQ ID NO: 3 (protein, listed as Avena sativa)
chain: MPPTPATATGAAAAAVTPEHAARSFPRVVRVNPRSDRFPVLSFHHVELWCADAASAAGRFSFALGAPLAARSDLSTGNSAHASLLLRSGALAFLFTAPYAPPPQEAATAAATASIPSFSADAARTFAAAHGLAVRSVGVRVADAAEAFRVSVAGGARPAFAPADLGHGFGLAEVELYGDVVLRFVSYPDETDLPFLPGFERVSSPGAVDYGLTRFDHVVGNVPEMAPVIDYMKGFLGFHEFAEFTAEDVGTTESGLNSVVLANNSEAVLLPLNEPVHGTKRRSQIQTYLEYHGGPGVQHIALASNDVLRTLREMRARTPMGGFEFMAPPQAKYYEGVRRIAGDVLSEEQIKECQELGVLVDRDDQGVLLQIFTKPVGDRPTFFLEMIQRIGCMEKDEVGQEYQKGGCGGFGKGNFSELFKSIEDYEKSLEVKQSVVAQKS
modifications: AsHPPD Amido Acid Sequence
- tolerance to topramezone, in words (Arabidopsis thaliana T1 plants sprayed with topramezone): no or relatively low tolerance
- Grade 0 [5]: 0
- Grade 1 [5]: 5
- Grade 2 [5]: 13
- Grade 3 [5]: 2
- Grade 0 [6]: 0
- Grade 1 [6]: 0
- Grade 2 [6]: 4
- Grade 3 [6]: 16
- score (non-372 position mutants, score for pesticide damage 0-100, topramezone 25 g ai/ha (1x)): 62
- score (non-372 position mutants, score for pesticide damage 0-100, topramezone 100 g ai/ha (4x)): 93
- Resistance Grade (non-372 position mutants, topramezone 25 g ai/ha (1x)): poorly resistant (poorly resistant plants (scores 34-67))
- Resistance Grade (non-372 position mutants, topramezone 100 g ai/ha (4x)): non-resistant (non-resistant plants (scores 68-100))
- Classification and statistics of the grade of pesticide damage Grade 0 (topramezone 25 g ai/ha (1x)): 0
- Classification and statistics of the grade of pesticide damage Grade 1 (topramezone 25 g ai/ha (1x)): 4
- Classification and statistics of the grade of pesticide damage Grade 2 (topramezone 25 g ai/ha (1x)): 12
- Classification and statistics of the grade of pesticide damage Grade 3 (topramezone 25 g ai/ha (1x)): 0
- Classification and statistics of the grade of pesticide damage Grade 0 (topramezone 50 g ai/ha (2x)): 0
- Classification and statistics of the grade of pesticide damage Grade 1 (topramezone 50 g ai/ha (2x)): 0
- Classification and statistics of the grade of pesticide damage Grade 2 (topramezone 50 g ai/ha (2x)): 6
- Classification and statistics of the grade of pesticide damage Grade 3 (topramezone 50 g ai/ha (2x)): 10
- Classification and statistics of the grade of pesticide damage Grade 0 (topramezone 100 g ai/ha (4x)): 0
- Classification and statistics of the grade of pesticide damage Grade 1 (topramezone 100 g ai/ha (4x)): 0
- Classification and statistics of the grade of pesticide damage Grade 2 (topramezone 100 g ai/ha (4x)): 4
- Classification and statistics of the grade of pesticide damage Grade 3 (topramezone 100 g ai/ha (4x)): 12
- tolerance to topramezone, in words (saturation mutation of HPPD from Avena sativa source (label F372X = AsHPPDm-F372X), topramezone 25, 50, 100 g ai/ha): no or low tolerance
- Scores (score for pesticide damage 0-100, topramezone 25 g ai/ha (1x)): 58
- Scores (score for pesticide damage 0-100, topramezone 50 g ai/ha (2x)): 88
- Scores (score for pesticide damage 0-100, topramezone 100 g ai/ha (4x)): 92
- Resistance evaluation (topramezone 25 g ai/ha (1x)): poorly resistant (poorly resistant plants (scores 34-67))
- Resistance Grade [7]: Poorly resistant
- score [7]: 57
- Grade 0 [8]: 2
- Grade 1 [8]: 2
- Grade 2 [8]: 16
- Grade 3 [8]: 0
- Grade 0 (number of plants) [3]: 2
- Grade 1 (number of plants) [3]: 2
- Grade 2 (number of plants) [3]: 16
- Grade 3 (number of plants) [3]: 0
- Resistance Grade [3]: Poorly resistant
- score [3]: 57
- Resistance evaluation (topramezone 50 g ai/ha (2x)): non-resistant (non-resistant plants (scores 68-100))
- Resistance Grade [9]: Non-resistant
- score [9]: 87
- Grade 0 [10]: 0
- Grade 1 [10]: 2
- Grade 2 [10]: 4
- Grade 3 [10]: 14
- Resistance evaluation (topramezone 100 g ai/ha (4x)): non-resistant (non-resistant plants (scores 68-100))
- Resistance Grade [11]: Non-resistant
- score [11]: 93
- Grade 0 [12]: 0
- Grade 1 [12]: 0
- Grade 2 [12]: 4
- Grade 3 [12]: 16
- Grade 0 (number of plants) [4]: 0
- Grade 1 (number of plants) [4]: 0
- Grade 2 (number of plants) [4]: 4
- Grade 3 (number of plants) [4]: 16
- Resistance Grade [4]: Non-resistant
- score [4]: 93
